Source: patent US6770740B1, “Crosslinked DNA condesate compositions and gene delivery methods” (The Regents of the University of Michigan, priority 1999, dated 2004)
Values belong to the substance of their own block, whether it stands above or below them. Bridges are numbered along the chain shown (N, C = ends). Where no end group is shown, it is not given here.

How the values were obtained:
[1] = QELS particle size and zeta potential of cross-linking peptide DNA condensates, Example 5; format: physicochemical
Experimental: The particle size of each peptide DNA condensate was determined by quasielastic light scattering (QELS) at a scatter angle of both 15° and 90° on a Brookhaven ZetaPlus™ particle sizer. Condensates were prepared at a DNA concentration of 50 μg/ml in 400 μl HBM at a stoichiometry of 0.4 nmol of peptide per μg of DNA corresponding to a charge ratio of approximately 2:1 for each. The mean diameter and population distribution were computed from the diffusion coefficient using a unimodal cummulant analysis supplied by the manufacturer.
The particle size and zeta peptide IV DNA condensates were determined by titrating 7.5 to 37.5 nmol of peptide with 75 μg of DNA in 1.5 ml of HBM to produce 50 μg/ml DNA condensates with charge ratio of 0.5-2.5. The zeta potential was averaged from 10 determines.

HepG2 cells [2] = assay: Transient SEAP gene expression over 10 days; format: cell-based; settings: with chloroquine
Experimental: HepG2 cells (3×10^5) were plated on 6×35 mm wells and grown for 48 h to 40% confluence in MEM supplemented with 10% fetal calf serum (FCS). Crosslinked DNA condensates (10 μg of DNA in 200 μL) were transfected in triplicate by drop wise addition to cells in 2% FCS either with or without 80 μM chloroquine followed by 5 h incubation, after which the media was replaced with 2 mL of MEM containing 10% fetal calf serum and allowed to incubate for an additional 19 h. Wells were sampled for 10 days at 24 h intervals by removing and freezing (−20° C.) the media and replacing it with 2 mL of fresh 10% FCS MEM.
The amount of SEAP in each well was determined using a chemiluminescent kit. Media (50 μL) was combined with 50 μl of dilution buffer followed by incubation at 65° C. for 30 min to denature endogenous alkaline phosphatase. […] After 30 min, the luminescence was measured with a 10 s integration on a Berthold Lumat™ LB 9501 luminometer. Light units were converted to μg/ml of SEAP using a standard curve constructed by adding known quantities of SEAP to cell homogenate. Background alkaline phosphatase production was determined from a 10 day null control that was subtracted from each data set.

HepG2 cells [3] = assay: Luciferase reporter gene expression in HepG2 cells, Example 5; format: cell-based
Experimental: HepG2 cells (1.5×10^5) were plated on 6×35 mm wells and grown to 40-70% confluency in MEM supplemented with 10% FBS, penicillin and streptomycin (10,000 U/ml), sodium pyruvate (100 mM), and L-glutamine (200 mM). Transfections were performed in MEM (2 ml per 35 mm well) with 2% FBS and 80 μM chloroquine. Peptide DNA condensates (10 μg of DNA in 0.2 ml HBM) were added dropwise to triplicate wells. After a 5 h incubation at 37° C., the media was replaced with MEM supplemented with 10% FBS. After 24 h, cells were washed twice with ice-cold phosphate buffered saline (calcium and magnesium free) and then treated with 0.5 ml of ice-cold lysis buffer (25 mM Tris chloride pH 7.8, 1 mM EDTA, 8 mM magnesium chloride, 1% Triton X-100, 1 mM DTT) for 10 min. The cell lysate was scraped, transferred to 1.5 ml microcentrifuge tubes, and centrifuged for 7 min at 13,000 g at 4° C. to pellet debris.
Lysis buffer (300 μl), sodium-ATP (4 μl of a 180 mM solution, pH 7, 4° C.) and cell lysate (100 μl, 4° C.) were combined in a test tube, briefly mixed and immediately placed in the luminometer. Luciferase relative light units (RLU) were recorded on a Lumat™ LB 9501 (Berthold systems, Germany) with 10 sec integration after automatic injection of 100 μl of 0.5 mM D-luciferin (prepared fresh in lysis buffer without DTT). The RLU were converted in fmol using a standard curve generated by adding a known amount of luciferase (0.01 to 100 fmols with specific activity of 2.5 nU/fmol) to 35 mm wells containing 40-70% confluent HepG2 cells. The cells were processed as described above resulting in a standard curve with an average slope of 7.8×10^6 RLU per fmol of enzyme. Protein concentrations were measured by Bradford assay using bovine serum albumin as a standard (Bradford, 1976). The amount of luciferase recovered in each sample was normalized to milligrams of protein and reported as the mean and standard deviation obtained from triplicate transfections.
LipofectAce™ (Gibco BRL, 1:2.5 w/w dimethyl diotadecylammonium bromide and dioleoyl phosphatidylethanolamine) was used to mediate gene transfection according to the manufacturer's instructions. The ratio of DNA to LepofectAce™ was optimized for HepG2 cells. An optimal DNA/LipofectAce™ ratio was achieved by dissolving 10 μg of DNA in 100 μl serum free media (SFM) followed by adding 60 μl of LipofectAce™ prepared in 140 μl of SFM. The LipfectAce™ DNA complex was then diluted with 1.7 ml of SFM and used to transfect HepG2 cells for 5 h followed by replacing the transfecting media with media supplemented with 10% FBS. The cells were incubated for a total of 24 h, harvested and analyzed for luciferase as described above.

plasmid DNA = assay: Fluorescent dye (thiazole orange) displacement assay of peptide binding to DNA, Example 1; settings: corresponding to a charge ratio of 1.8:1
Experimental: Peptide DNA condensates were formed by adding 75 μg of DNA (pCMVL in 750 μl of 5 mM Hepes pH 7.4) to varying amounts of peptide (7.5 to 90 nmol in 750 μl of Hepes) while vortexing, followed by equilibration at RT for 1 h. Peptide binding to DNA was monitored by a fluorescent dye displacement assay (Wadhwa et al. 1997). A 1 μg aliquot of the peptide DNA condensate was diluted to 1 ml in Hepes containing 0.1 μM thiazole orange. The fluorescence of the intercalated dye was measured on an LS50B fluorimeter (Perkin Elmer, UK) in a microcuvette by exciting at 500 nm while monitoring emission at 530 nm.

[4] = Solubility of peptide DNA condensates: particle size as a function of DNA concentration; format: physicochemical; settings: at 2 mg/ml DNA
[5] = QELS particle size and zeta potential of PEG-peptide DNA condensates and co-condensates, Example 1; format: physicochemical
Experimental: The particle size of peptide DNA condensates were analyzed at a DNA concentration of 50 μg/ml in Hepes by quasielastic light scattering (QELS). The particle surface change was determined by zeta potential analysis using a Brookhaven ZetaPlus™ (Brookhaven Instruments).
DNA co-condensates were prepared by add-mixing AlkCWK18 and PEG-VS-CWK18 in ratios ranging from 0 to 100 mol %, and condensing DNA at a charge ratio of 2.3:1 as described above. To establish the mol ratio of peptides bound to DNA, condensates were dialyzed in a fixed volume (0.5 ml) dialyzer for 75 h against water using a 100,000 MWCO membrane. Peptide DNA condensates in the retentate (0.5 ml) were dissociated by adding 50 μl of 5 M sodium chloride in 0.1% TFA. AlkCWK18 and PEG-VS-CWK18 were quantified by injecting 1 nmol of peptide (100 μl) onto analytical RP-HPLC eluted with 0.1% TFA and a gradient of acetonitrile (5 to 65% over 30 min) while detecting tryptophan by fluorescence (λex 280 nm, λem 350 nm). The peak integration areas were used to quantify AlkCWK18 and PEG-VS-CWK18 with reference to standard curves developed for each peptide.

HepG2 cells [6] = assay: Cell binding of 125I-DNA condensates, Example 1; format: cell-based; settings: 5 h transfection, 10 μg 125I-DNA condensates
Experimental: Iodinated plasmid DNA was prepared with specific activity of 300 nCi per μg of DNA as described previously (Teribesi et al., 1998). Prior to forming DNA condensates, the specific activity of the ^125I DNA was adjusted to 4.5 nCi per μg of DNA by combining with unlabeled plasmid. DNA condensates were prepared using AlkCWK18, PEG-SS-CWK18 or PEG-VS-CWK18 as described above. Peptide ^125I-DNA condensates (10 μg) were used to transfer HepG2 cells for 5 h according to the procedure described above. The radioactive media was removed, cells were washed with phosphate buffered saline, harvested with lysis buffer, and the cell-associated radioactivity was quantified by gamma counting.

HepG2 cells [7] = assay: In vitro luciferase gene expression, Example 1; format: cell-based; settings: HepG2, 24 h post-transfection, 10 μg DNA, 80 μM chloroquine
Experimental: HepG2 cells were plated at 1.5×10^5 cells per 35 mm well and grown to 40-70% confluence in MEM supplemented with 10% fetal calf serum (FCS). Peptide DNA condensates (10 μg of DNA) were added dropwise to triplicate sets of cells in 2% FCS containing 80 μM chloroquine. After 5 h incubation at 37° C., the media was replaced with MEM supplemented with 10% FCS, and luciferase expression was determined at 24 h. Cells were washed twice with ice-cold phosphate buffered saline (calcium and magnesium free) and then treated with 0.5 ml of ice-cold lysis buffer (25 mM Tris hydrochloride pH 7.8, 1 mM EDTA, 8 mM magnesium chloride, 1% Triton X-100, 1 mM DTT) for 10 min. The cell lysate was scraped, transferred to 1.5 ml micro centrifuge tubes, and centrifuged for 7 min at 13,000 g at 4° C. to pellet debris.
Lysis buffer (300 μl), sodium-ATP (4 μl of a 180 mM solution, pH 7, 4° C.) and cell lysate (100 μl, 4° C.) were combined in a test tube, briefly mixed and immediately placed in the luminometer. Luciferase relative light units (RLU) were recorded on a Lumat™ LB 9501 (Berthold Systems, Germany) with 10 sec integration after automatic injection of 100 μl of 0.5 mM D-luciferin (prepared fresh in lysis buffer without DTT). […]

Substance: Lys18-Trp-Cys-S-S-Cys-Trp-Lys18 (KKKKKKKKKKKKKKKKKKWCCWKKKKKKKKKKKKKKKKKK; disulfide 20-21; also: disulfide-linked dimer of two CWK18 chains, no peptide bond between positions 20 and 21) [DiCWK18]
Particle Size Mean Diameter, Oxidized, 15° ([1]; HBM after 2 h incubation, 50 μg/ml DNA, 0.4 nmol peptide per μg DNA, scattering angle 15°): 74 nm
Particle Size Mean Diameter, Oxidized, 90° ([1]; HBM after 2 h incubation, 50 μg/ml DNA, 0.4 nmol peptide per μg DNA, scattering angle 90°): 68 nm
Particle Size Mean Diameter, Saline ([1]; HBM with added saline (0.15 M) after 15 min): 171 nm
Particle Size Mean Diameter, Reduced ([1]; following addition of TCEP (1 mM)): 153 nm
more gene product relative to CWK18 DNA condensates (HepG2 cells [2]): approximately 10%
slope of the day 7-10 cumulative SEAP expression (HepG2 cells [2]; HMW polylysine panel (FIG. 29B)): 32.7 ng/mL
inferiority to polylysine1007 as a DNA carrier (gene expression) (HepG2 cells [3]): 5 fold

peptide:DNA stoichiometry at the asymptote of the dye displacement titration curve (relative DNA binding affinity) (plasmid DNA): 0.3 nmol per μg of DNA
Substance: PEG-SS-CWK18: reducible PEG-peptide from PEG-orthopyridyl-disulfide (5 kDa) and the sulfhydryl of CWK18 (CWKKKKKKKKKKKKKKKKKK; not fully specified (residue 1))
mean diameter of DNA condensates [4]: 88 nm
zeta potential of DNA condensates ([5]; charge ratio 1.8:1): +10 mV
mean diameter of DNA condensates ([5]; charge ratio of 1.8:1 or higher, 50 μg/ml DNA in Hepes): 90 nm
cell associated 125I-DNA, percent of dose (HepG2 cells [6]): 6.8%
reduction of spontaneous gene transfer (luciferase expression) relative to AlkCWK18 DNA condensates (HepG2 cells [7]): five-fold
